Measurements published in patent US20250152746A1, “BASE EDITING OF ANGPTL3 AND METHODS OF USING SAME FOR TREATMENT OF DISEASE” (Verve Therapeutics, Inc., priority 2020, published 2025).
In the oligonucleotide strings, read from the 5' end, every base follows the letter of its sugar. An asterisk marks phosphorothioate; unmarked linkages are phosphodiester. Other units and linkages are bracketed, terminal groups are in braces. A string of capitals states the bases alone. m = 2'-O-methyl; r = 2'-OH (RNA)

B1: GA192: PCSK9 gRNA; protospacer CCATGTCGACTACATCGAGG (SEQ ID NO: 186) (nucleic acid)
guide: mC*mC*mA*rUrGrUrCrGrArCrUrArCrArUrCrGrArGrGrGrUrUrUrUrArGrArGrCrUrArGrArArArUrArGrCrArArGrUrUrArArArArUrArArGrGrCrUrArGrUrCrCrGrUrUrArUrCrArArCrUrUrGrArArArArArGrUrGrGrCrArCrCrGrArGrUrCrGrGrUrGrCrU*mU*mU*mU
B2: GA193: PCSK9 gRNA; protospacer GGGGCTGGTATTCATCCGCC (SEQ ID NO: 187) (nucleic acid)
guide: GGGGCUGGUAUUCAUCCGCCGUUUUAGAGCUAGAAAUAGCAAGUUAAAAUAAGGCUAGUCCGUUAUCAACUUGAAAAAGUGGCACCGAGUCGGUGCUUUU
modifications: sugars from the 5' end m3 r94 m3, linkages s3 o93 s3 (s phosphorothioate, o phosphodiester), T or U not given here
B3: GA157: PCSK9 gRNA; protospacer GCCGTCCTCCTCGGAACGCA (SEQ ID NO: 151) (nucleic acid)
guide: mG*mC*mC*rGrUrCrCrUrCrCrUrCrGrGrArArCrGrCrArGrUrUrUrUrArGrArGrCrUrArGrArArArUrArGrCrArArGrUrUrArArArArUrArArGrGrCrUrArGrUrCrCrGrUrUrArUrCrArArCrUrUrGrArArArArArGrUrGrGrCrArCrCrGrArGrUrCrGrGrUrGrCrU*mU*mU*mU
B4: GA194: PCSK9 gRNA; protospacer GTCGACATGGGGCAACTTCA (SEQ ID NO: 188) (nucleic acid)
guide: GUCGACAUGGGGCAACUUCAGUUUUAGAGCUAGAAAUAGCAAGUUAAAAUAAGGCUAGUCCGUUAUCAACUUGAAAAAGUGGCACCGAGUCGGUGCUUUU
modifications: sugars from the 5' end m3 r94 m3, linkages s3 o93 s3 (s phosphorothioate, o phosphodiester), T or U not given here
B5: GA195: PCSK9 gRNA; protospacer ACCACCGGGAAATCGAGGGC (SEQ ID NO: 189) (nucleic acid)
guide: ACCACCGGGAAAUCGAGGGCGUUUUAGAGCUAGAAAUAGCAAGUUAAAAUAAGGCUAGUCCGUUAUCAACUUGAAAAAGUGGCACCGAGUCGGUGCUUUU
modifications: sugars from the 5' end m3 r94 m3, linkages s3 o93 s3 (s phosphorothioate, o phosphodiester), T or U not given here
B6: GA196: PCSK9 gRNA; protospacer GAGTGACCACCGGGAAATCG (SEQ ID NO: 190) (nucleic acid)
guide: GAGUGACCACCGGGAAAUCGGUUUUAGAGCUAGAAAUAGCAAGUUAAAAUAAGGCUAGUCCGUUAUCAACUUGAAAAAGUGGCACCGAGUCGGUGCUUUU
modifications: sugars from the 5' end m3 r94 m3, linkages s3 o93 s3 (s phosphorothioate, o phosphodiester), T or U not given here
B7: GA197: PCSK9 gRNA; protospacer AGTGACCACCGGGAAATCGA (SEQ ID NO: 191) (nucleic acid)
guide: AGUGACCACCGGGAAAUCGAGUUUUAGAGCUAGAAAUAGCAAGUUAAAAUAAGGCUAGUCCGUUAUCAACUUGAAAAAGUGGCACCGAGUCGGUGCUUUU
modifications: sugars from the 5' end m3 r94 m3, linkages s3 o93 s3 (s phosphorothioate, o phosphodiester), T or U not given here
B8: GA198: PCSK9 gRNA; protospacer CCACCGGGAAATCGAGGGCA (SEQ ID NO: 192) (nucleic acid)
guide: CCACCGGGAAAUCGAGGGCAGUUUUAGAGCUAGAAAUAGCAAGUUAAAAUAAGGCUAGUCCGUUAUCAACUUGAAAAAGUGGCACCGAGUCGGUGCUUUU
modifications: sugars from the 5' end m3 r94 m3, linkages s3 o93 s3 (s phosphorothioate, o phosphodiester), T or U not given here
B9: GA199: PCSK9 gRNA; protospacer GAAGCGGGTCCCGTCCTCCT (SEQ ID NO: 193) (nucleic acid)
guide: GAAGCGGGUCCCGUCCUCCUGUUUUAGAGCUAGAAAUAGCAAGUUAAAAUAAGGCUAGUCCGUUAUCAACUUGAAAAAGUGGCACCGAGUCGGUGCUUUU
modifications: sugars from the 5' end m3 r94 m3, linkages s3 o93 s3 (s phosphorothioate, o phosphodiester), T or U not given here
B10: GA200: PCSK9 gRNA; protospacer CTAGGAGATACACCTCCACC (SEQ ID NO: 194) (nucleic acid)
guide: CUAGGAGAUACACCUCCACCGUUUUAGAGCUAGAAAUAGCAAGUUAAAAUAAGGCUAGUCCGUUAUCAACUUGAAAAAGUGGCACCGAGUCGGUGCUUUU
modifications: sugars from the 5' end m3 r94 m3, linkages s3 o93 s3 (s phosphorothioate, o phosphodiester), T or U not given here
B11: GA201: PCSK9 gRNA; protospacer CAGCATACAGAGTGACCACC (SEQ ID NO: 195) (nucleic acid)
guide: CAGCAUACAGAGUGACCACCGUUUUAGAGCUAGAAAUAGCAAGUUAAAAUAAGGCUAGUCCGUUAUCAACUUGAAAAAGUGGCACCGAGUCGGUGCUUUU
modifications: sugars from the 5' end m3 r94 m3, linkages s3 o93 s3 (s phosphorothioate, o phosphodiester), T or U not given here

system: PCSK9 gene; assay: PCSK9 gRNA/SpCas9 editing in primary human hepatocytes (Tables 2, 4); assay type: cell-based; conditions: 100 ng/RNA/mL; SpCas9 mRNA MS002 1:1 by weight
Protocol: In set of experiments, PCSK9 gRNAs were co-transfected with an equivalent amount (1:1 ratio by weight) of in vitro transcribed commercially available SpCas9 mRNA MS002 purchased from TriLink Biotechnologies into primary human hepatocytes at 2500, 500, or 100 ng/RNA/mL and processed as described in detailed methods. Extracted genomic DNA was analyzed for gene editing at the target site with next-generation sequencing of PCR amplicons generated around the target sites. Samples were prepared using the Nextera XT DNA library preparation kit (Illumina) according to the manufacturer's protocol. Briefly, two rounds of PCR were performed first to amplify the region of interest and second to add DNA sequences required for next generation sequencing and sample identification to the initial product. The final amplicon was sequenced on the Illumina MiSeq instrument according to the manufacturer's protocol. A wide range of editing activities (Table 2) were observed. In a second set of experiments, ANGPTL3 gRNAs were co-transfected with an equivalent amount of in vitro transcribed SpCas9 mRNA (1:1 ratio by weight) into primary human hepatocytes and processed and analyzed similarly (Table 3).
PCSK9 gRNAs were co-transfected with an equivalent amount of in vitro transcribed SpCas9 mRNA MS002 (1:1 ratio by weight) into primary human hepatocytes and processed as described in detailed methods. A wide range of editing activities were observed (Table 4; ND=Not determined). The guides with the highest editing activity at five days post transfection were GA001, GA002, GA007, and GA008.
Human primary hepatocytes were transfected at 2500, 1250, 500, and 250 ng/test article/mL with SpCas9 mRNA MS002 and a gRNA targeting PCSK9 with modifications to the tracr. Genomic DNA was processed, sequenced, and analyzed as described in the detailed methods section. GA156 was transfected to serve as a positive control.
Plating, culturing, and transfection of primary hepatocytes. Primary human liver hepatocytes (PHH) and primary cynomolgus liver hepatocytes (PCH) from BioIVT were cultured per the manufacturer's protocol. Briefly, primary human hepatocytes and primary cyno hepatocytes were obtained as frozen aliquots from BioIVT. Four lots of primary human hepatocytes, each derived from a de-identified individual donor, were used for the experiments: STL (main donor) was used for all experiments, including screening experiments and off-target experiments; HLY, JLP, and TLY were used for off-target experiments. The HFG lot of primary cyno hepatocytes were used for experiments. Following the manufacturer's instructions, cells were thawed and rinsed prior to plating in 24-well plates that had been coated with bovine collagen overnight, with a density of approximate 350,000 cells/well in INVITROGRO hepatocyte medium supplemented with TORPEDO antibiotic mix (BioIVT). The cells were thawed and resuspended in hepatocyte thawing medium followed by centrifugation at 100 g for 10 min at 4° C. The supernatant was discarded, and the pelleted cells resuspended in hepatocyte plating medium. Each vial contains approximately 5 million cells that were used for plating one 24-well plate. Plated cells were allowed to settle and adhere for 4-6 h in a tissue culture incubator at 37° C. under 5% CO2 atmosphere. After incubation, cells were checked for monolayer formation. The incubating media were then replaced with fresh hepatocyte maintenance media (complete INVITROGRO medium obtained from BioIVT, the cell line provider). The cells thus became ready for transfection. Each of the gRNAs were co-transfected with an equivalent amount of in vitro transcribed ABE8.8 mRNA (1:1 ratio by molecular weight) into primary human hepatocytes via MessengerMax reagent (Lipofectamine), using various dilutions to assess for editing activity at different concentrations of test article. MessengerMAX from Thermo Fisher is used for transfection. […]

Molecule	Human Primary Hepatocyte Editing % 100 [%]
B1	1.14
B2	3.92
B3	0.62
B4	2.32
B5	3.58
B6	0.75
B7	1.22
B8	0.04
B9	1.17
B10	3.8
B11	3.29

same assay, conditions: 500 ng/RNA/mL; SpCas9 mRNA MS002 1:1 by weight

Molecule	Human Primary Hepatocyte Editing % 500 [%]
B1	6.02
B2	15.68
B3	2.82
B4	12.39
B5	13.3
B6	2.9
B7	3.29
B8	10.58
B9	6.89
B10	8.68
B11	12.92

same assay, conditions: 2500 ng/RNA/mL; SpCas9 mRNA MS002 1:1 by weight

Molecule	Human Primary Hepatocyte Editing % 2500 [%]
B1	16.7
B2	35.77
B3	10.03
B4	32.97
B5	12.57
B6	17.19
B7	15.03
B8	30.93
B9	29.95
B10	5.31
B11	31.51

system: PCSK9 gene; assay: PCSK9 gRNA/SpCas9 editing in primary cynomolgus hepatocytes (Tables 2, 22); assay type: cell-based, cynomolgus monkey; conditions: 100 ng/RNA/mL; SpCas9 mRNA MS002 1:1 by weight

Molecule	Cyno Primary Hepatocyte Editing % 100 [%]
B1	0.60
B2	8.70
B3	0.78
B4	2.38
B5	0.69
B6	1.09
B7	0.9
B8	3.53
B9	3.07
B10	5.15
B11	4.33

same assay, conditions: 500 ng/RNA/mL; SpCas9 mRNA MS002 1:1 by weight

Molecule	Cyno Primary Hepatocyte Editing % 500 [%]
B1	1.50
B2	32.02
B3	2.93
B4	9.49
B5	4.77
B6	3.4
B7	3.89
B8	16.15
B9	15.11
B10	20.51
B11	14.37

same assay, conditions: 2500 ng/RNA/mL; SpCas9 mRNA MS002 1:1 by weight

Molecule	Cyno Primary Hepatocyte Editing % 2500 [%]
B1	10.26
B2	52.89
B3	13.78
B4	30.91
B5	18.78
B6	27.79
B7	18.21
B8	49
B9	45.32
B10	54.36
B11	44.01
